From publication PMC2887854 come the findings set out here.

pKd: −log10 of the molar value.

In the assay the target is protective antigen (PA83, 83 kDa), monomeric (Bacillus anthracis). As to the kind of experiment: SPR. Background: In SPR one partner is held on a chip, and binding of the other changes the refractive index at the surface.
Sequence of protective antigen (PA83, 83 kDa), monomeric (Bacillus anthracis) (P13423 30-764 limits assumed): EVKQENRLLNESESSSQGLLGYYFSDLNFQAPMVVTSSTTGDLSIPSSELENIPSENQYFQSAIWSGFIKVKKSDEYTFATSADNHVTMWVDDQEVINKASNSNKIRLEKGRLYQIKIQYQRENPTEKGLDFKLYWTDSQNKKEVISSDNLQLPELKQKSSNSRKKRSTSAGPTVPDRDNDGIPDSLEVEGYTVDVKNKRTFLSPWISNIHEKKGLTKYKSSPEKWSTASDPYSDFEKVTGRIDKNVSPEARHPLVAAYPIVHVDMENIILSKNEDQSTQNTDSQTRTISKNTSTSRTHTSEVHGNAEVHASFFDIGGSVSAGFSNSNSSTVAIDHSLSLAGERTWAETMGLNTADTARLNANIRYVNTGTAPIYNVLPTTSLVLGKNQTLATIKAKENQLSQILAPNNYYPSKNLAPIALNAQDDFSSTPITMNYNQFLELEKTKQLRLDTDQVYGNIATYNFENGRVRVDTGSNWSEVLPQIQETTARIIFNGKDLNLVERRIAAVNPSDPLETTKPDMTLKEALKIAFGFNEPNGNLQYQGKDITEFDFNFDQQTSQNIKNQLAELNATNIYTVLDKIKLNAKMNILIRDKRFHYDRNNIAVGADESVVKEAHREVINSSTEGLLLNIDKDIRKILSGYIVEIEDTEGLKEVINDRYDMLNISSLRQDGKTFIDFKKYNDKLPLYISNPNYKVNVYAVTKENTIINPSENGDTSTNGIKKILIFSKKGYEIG

What is called pKd is the negative decadic logarithm of the Kd, by convention in mol/L. Higher therefore signals a small Kd. What is called koff is the first-order rate constant of dissociation. The term kon denotes the second-order rate constant of association. Lower therefore signals slow association. In turn, “CMG2-R40 vWA domain (residues 40-217) (from UniProt P58335 40-217) (domain or fragment)” showed a negative-log Kd (pKd) of 8.61, a koff of 0.000105 s⁻¹ and a kon of 45300 M⁻¹ s⁻¹.
